Data taken from the supplement of paper PMC10567573.

B1: TTC32 (parent)
chain: YSAYIRRCACAASSDESPGSKCSP

Variants of: B1
Test: protein stability index of a GFP-peptide fusion (GPS, HEK-293T) (PSI 1-6); higher = more stable
Conditions: c terminus: a fixed tail appended
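Further: lentivirally expressed fusions sorted by FACS into six bins by GFP to DsRed ratio, PSI derived from sequencing read proportions per bin multiplied by bin number.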

Protein stability index, by site and new letter:
C8: K 3.48; Y 2.07; P 3.49; R 2.99
Y4: N 2.85; L 2.45; A 2.01; E 3.34; F 1.92; D 3.36; C 2.4; W 3.57; P 2.45
S13: C 2.96; D 2.62; Q 1.96; P 1.89; A 2.07; N 1.87; F 2.08
A3: Y 1.75; D 2.62; G 2; K 2.44; T 2.16; H 2.15
K21: M 3.54; E 2.3; H 1.97; N 2.11; Q 1.98; R 1.56; L 1.95
S23: N 2.17; I 1.4; A 1.87; Y 1.5; H 1.6; P 2.02; F 1.9; E 2.14; D 2.46
R7: E 2.81; P 3.01; K 2.23; L 2.16; D 3.92; A 2.17
S17: Y 1.68; Q 1.96; H 1.85; T 2.37; I 2.66; M 2.2; R 2.28; W 1.78
C10: I 2.38; A 3.13; R 2.78; T 2.73; M 1.97; K 3.42; P 2.88; Y 2.17
G19: T 1.91; N 2.24; Q 2; K 2.29; E 2.31; Y 2.35; L 1.31
Y1: G 2.48; V 2.17; Q 2.56; S 2.54; A 2.62; C 2.04; R 2.64; P 2.88
D15: L 1.61; Y 2.38
P24: W 1.91; R 2.2; K 2.03; E 2.34; G 2.23; Y 1.54; V 2.93
A11: H 2.33; E 1.87; L 1.74; M 1.83; V 2.61
I5: E 3.46; H 2.82; K 2.65; Q 2.09; W 3.7
A9: K 2.38; H 1.92; W 1.45; C 1.59; Y 1.55; D 2.58; N 2.37; M 1.96
E16: I 1.82; G 1.8; F 2.68; D 2.06; H 2.36; M 2.42; S 1.94; V 1.81; N 1.92
C22: M 1.71; T 2.57; S 2.28; H 2.14; F 1.69; V 2.1; Y 1.65; G 2.35
A12: M 1.82; I 1.78; V 2.16; P 2.26; R 1.93; K 1.81; L 1.87
R6: A 2.07; D 3.62; Q 2; I 2.43; S 2.41; Y 2.25; M 1.33; L 2.07; C 2.26
S20: A 2.13; I 1.85; F 1.93; M 2.12; Q 2.21; H 2.8; P 1.68; N 2.11; G 1.97
S14: G 2.33; C 2.18; F 1.45; R 2.03; Y 1.88; P 2.29
S2: H 4.15; K 1.92; C 2.06; Y 1.92; F 2.16; V 2.52
P18: V 2.07; K 2.82; Q 1.96; G 2.43; L 2.22; W 2.63; C 2.28
